Data on 11 molecules can be found in patent US20160159919A1 (Chugai, published 2016).

First the molecules themselves.
B1: H119-G1d/LB-k (antibody, human IgG1, kappa, V domains shown)
VH: QDQLVQSGAEVKKPGASVKVSCKASGFNIKDTYIQWVRQAPGQGLEWMGRIDPLRGNTRYREKFEGRVTITADTSTNTAYMELSSLRSEDTAVYYCVRSGTLFDFWGQGTLVTVSS
VL: DIQMTQSPSSLSASVGDRVTITCKASQDIHKYIAWYQQKPGQAPRLLIQYTSTLQPGVPSRFSGSGSGTDYTFTISSLQPEDIATYYCLQYDNLRTFGGGTKVEIKR
B2: H132-G1d/LB-k (antibody, human IgG1, kappa, V domains shown)
VH: B1 VH with G56R, R59K, T101R
VL: B1 VL
B3: H133-G1d/LB-k (antibody, human IgG1, kappa, V domains shown)
VH: B1 VH with G56R, R59K, L102R
VL: B1 VL
B4: H131-G1d/LB-k (antibody, human IgG1, kappa, V domains shown)
VH: B1 VH with G56R, R59K, G100R
VL: B1 VL
B5: H123-G1d/LB-k (antibody, human IgG1, kappa, V domains shown)
VH: B1 VH with R59K, G66R
VL: B1 VL
B6: H121-G1d/LB-k (antibody, human IgG1, kappa, V domains shown)
VH: B1 VH with R59K, K63R
VL: B1 VL
B7: H120-G1d/LB-k (antibody, human IgG1, kappa, V domains shown)
VH: B1 VH with R59K, Y60R
VL: B1 VL
B8: H124-G1d/LB-k (antibody, human IgG1, kappa, V domains shown)
VH: B1 VH with Y33R, R59K
VL: B1 VL
B9: H206-G1d/L53-k (antibody, human IgG1, kappa, V domains shown)
VH: B1 VH with K13N, G56R, N57Q, R59K, T101R, L102E
VL: B1 VL with K24R
B10: H205-G1d/L73-k (antibody, human IgG1, kappa)
heavy: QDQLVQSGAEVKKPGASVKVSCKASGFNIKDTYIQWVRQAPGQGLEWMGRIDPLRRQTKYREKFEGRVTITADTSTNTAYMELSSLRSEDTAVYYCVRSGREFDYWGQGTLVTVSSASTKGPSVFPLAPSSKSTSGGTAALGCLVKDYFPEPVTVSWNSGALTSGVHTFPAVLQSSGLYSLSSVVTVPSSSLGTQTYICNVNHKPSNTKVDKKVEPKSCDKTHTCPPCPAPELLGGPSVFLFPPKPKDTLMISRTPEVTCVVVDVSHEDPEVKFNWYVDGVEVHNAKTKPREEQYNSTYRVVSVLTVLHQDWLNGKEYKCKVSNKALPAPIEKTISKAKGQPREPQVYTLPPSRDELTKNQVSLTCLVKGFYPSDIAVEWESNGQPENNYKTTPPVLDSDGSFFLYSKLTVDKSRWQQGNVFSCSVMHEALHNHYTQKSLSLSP
light: DIQMTQSPSSLSASVGDRVTITCRASQDIHKYIAWYQQKPGQAPRLLIQYTSTLQPGVPSRFSGSGSGTDYTFTISSLQPEDIATYYCLQYEQLRTFGGGTKVEIKRTVAAPSVFIFPPSDEQLKSGTASVVCLLNNFYPREAKVQWKVDNALQSGNSQESVTEQDSKDSTYSLSSTLTLSKADYEKHKVYACEVTHQGLSSPVTKSFNRGEC
B11: H231-G1d/L73-k (antibody, human IgG1, kappa)
heavy: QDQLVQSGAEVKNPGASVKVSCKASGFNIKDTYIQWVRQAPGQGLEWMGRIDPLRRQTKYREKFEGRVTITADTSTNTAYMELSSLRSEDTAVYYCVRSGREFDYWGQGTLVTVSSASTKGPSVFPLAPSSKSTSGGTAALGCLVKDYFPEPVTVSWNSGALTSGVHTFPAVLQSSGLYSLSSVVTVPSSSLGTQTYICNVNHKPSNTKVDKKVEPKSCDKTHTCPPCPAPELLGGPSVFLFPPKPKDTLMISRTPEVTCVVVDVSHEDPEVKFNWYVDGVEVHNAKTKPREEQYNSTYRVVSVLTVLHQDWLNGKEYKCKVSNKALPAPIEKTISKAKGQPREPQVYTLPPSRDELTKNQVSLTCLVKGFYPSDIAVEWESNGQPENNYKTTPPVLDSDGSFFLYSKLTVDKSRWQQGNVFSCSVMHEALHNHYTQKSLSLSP
light: B10 light

For orientation: Kd means the equilibrium constant for the complex coming apart. One may read the koff as a measure of how fast the partners let go of each other. Usually kon stands for a measure of how fast the partners come together.

Positions count from the first letter of the chain named.

For the first assay, the target named is T1, cynomolgus EREG (Biacore analyte) (cynomolgus monkey, UniProt O14944 63-108 (human entry), limits assumed).
T1 construct: also called cynomolgus monkey EREG; cEREG
T1 sequence (O14944 other isoform, or with tags, fused parts or gaps limits assumed): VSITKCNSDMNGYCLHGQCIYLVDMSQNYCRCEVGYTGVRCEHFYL
Kind of assay: SPR (Biacore T100), antibody captured on Protein A, EREG as analyte; KD for monkey EREG over KD for human EREG. The method, then: (§1) The affinity and association rate constant of an anti-EREG antibody for an antigen were measured by the single-cycle kinetics method of surface plasmon resonance assay using Biacore™-T100 (GE Healthcare Japan). HBS-EP+ (GE Healthcare Japan) was used for the running buffer, and an amine coupling kit (GE Healthcare Japan) was used to covalently bond Protein A to the CM5 chip (carboxymethyl dextran-coated chip). Each anti-EREG antibody was prepared so that approximately 350 RU will be captured by Protein A. Human EREG or cynomolgus EREG used as the analyte was prepared at 0, 0.7, 1.4, 2.8, 5.6, and 11.2 nM using HBS-EP+. Measurement was carried out by first allowing Protein A to capture the antibody solution, and then at a flow rate of 30 μL/min, successively injecting each of the 0, 0.7, 1.4, 2.8, 5.6, and 11.2 nM human EREG or cynomolgus EREG solutions for three minutes to allow reaction to take place. Then, the solution was switched to HBS-EP+, and the dissociation phase was measured for 15 minutes. After completion of the dissociation phase measurement, the sensor chip was washed with 25 mM NaOH and regenerated. The measurement at zero concentration was similarly carried out by allowing Protein A to capture the antibody solution, and performing three-minute HBS-EP+ injections successively for five times to allow reaction to take place, and then switching to HBS-EP+ to measure the dissociation phase for 15 minutes. After completion of the dissociation phase measurement, the sensor chip was washed with 25 mM NaOH and regenerated. A data analysis software exclusively for Biacore, Biacore T100 Evaluation Software Version 2.0.1, was used to perform kinetic analyses to calculate the association rate constant (kₐ), dissociation rate constant (kd), and the rate constant ratio from the obtained sensorgrams. To correct for the day-to-day differences in the measurement values, FIGS. 1 to 4 and Tables 16 and 19 show ratios based on taking the value of the control sample (cH-G1/cL-k) measured on the same day as 1.
For the molecule B1, the “cEREG KD (nM)/hEREG KD (nM)” value amounted to 9.8 ratio.

In the case of B2, the “cEREG KD (nM)/hEREG KD (nM)” value stood at 4.6 ratio.

On to B3, for which the “cEREG KD (nM)/hEREG KD (nM)” value came to 6.1 ratio.

As for B4, the “cEREG KD (nM)/hEREG KD (nM)” value was determined as 4.7 ratio.

As to B5, the “cEREG KD (nM)/hEREG KD (nM)” value is 8.2 ratio.

Consider B6, for which the “cEREG KD (nM)/hEREG KD (nM)” value was determined as 8.3 ratio.

B7: the “cEREG KD (nM)/hEREG KD (nM)” value amounted to 9.1 ratio.

In the case of B8, the “cEREG KD (nM)/hEREG KD (nM)” value is 20.6 ratio.

For the next assay, the target named is T1, cynomolgus EREG (Biacore analyte). Kind of assay: SPR (Biacore T100); KD for monkey EREG over KD for human EREG. The method, then:
as §1
With B9, the “cEREG (nM)/hEREG (nM)” value worked out at 5.2 ratio.

Consider B10, for which the “cEREG (nM)/hEREG (nM)” value was 3.1 ratio.

Turning to B11, the “cEREG (nM)/hEREG (nM)” value was found to be 3.5 ratio.

Another assay deals with T2, Human EREG (Biacore analyte) (human, UniProt O14944 63-108).
T2 construct: also called hEREG; human epiregulin
T2 sequence (O14944 63-108 limits assumed): as the sequence (O14944 other isoform, or with tags, fused parts or gaps limits assumed) above, with N7S, Y45F counted along it
Kind of assay: SPR (Biacore T100), antibody captured on Protein A, EREG as analyte, single-cycle kinetics. The protocol: as §1
(In general: In SPR one partner is held on a chip, and binding of the other changes the refractive index at the surface.)
As for B9, the Kd was 0.17 nM, the koff turned out to be 0.00011 s⁻¹ and the kon was found to be 660000 M⁻¹ s⁻¹.

B10 had a Kd of 0.19 nM, a koff of 7.5e-05 s⁻¹ and a kon of 390000 M⁻¹ s⁻¹.

The molecule B11 displayed a Kd of 0.14 nM, a koff of 8.7e-05 s⁻¹ and a kon of 620000 M⁻¹ s⁻¹.

The next assay has as its target T1, cynomolgus EREG (Biacore analyte). The assay is described as above. The method, then:
as §1
Molecule B9 displayed a Kd of 0.94 nM, a koff of 0.00061 s⁻¹ and a kon of 640000 M⁻¹ s⁻¹.

For the molecule B10, binding was characterised by a dissociation constant (Kd) of 0.69 nM, the koff turned out to be 0.00026 s⁻¹ and the kon was 370000 M⁻¹ s⁻¹.

The molecule B11 displayed a Kd of 0.66 nM, a koff of 0.00028 s⁻¹ and a kon of 420000 M⁻¹ s⁻¹.
